Article PMC5798830, “Hexons from adenovirus serotypes 5 and 48 differentially protect adenovirus vectors from neutralization by mouse and human serum” (PLoS ONE, 2018)

How the values were obtained:
[1] = molecular target: T1, human coagulation factor X (human); assay: SPR; Biacore T200; about 1,200 reference units of Ad5.0, Ad5:H48 or Ad48 particles immobilised on a CM5 chip; FX as analyte at four concentrations (max 42 nM for Ad5.0 and Ad5:H48, 212 nM for Ad48); 10 mM HEPES, 150 mM NaCl, 1 mM CaCl2, 0.5 mM MgCl2, 0.1% BSA, 0.05% polysorbate 20, pH 7.4; 50 uL/min; global fit to a 1:1 kinetic model; settings: both partners purified
T1 construct: Probably plasma zymogen with Gla residues in the light chain (surmised); also called human FX; FX; source: bought: Haematologic Technologies, Inc

[2] = molecular target: T2, mouse coagulation factor X (mouse); assay: as above; settings: both partners purified
T2 construct: also called mouse FX; FX; source: bought: Haematologic Technologies, Inc

B1: Ad5.0 vector (adenovirus serotype 5 vector with a wild-type Ad5 capsid) (complex)
chain: ATPSMMPQWSYMHISGQDASEYLSPGLVQFARATETYFSLNNKFRNPTVAPTHDVTTDRSQRLTLRFIPVDREDTAYSYKARFTLAVGDNRVLDMASTYFDIRGVLDRGPTFKPYSGTAYNALAPKGAPNPCEWDEAATALEINLEEEDDDNEDEVDEQAEQQKTHVFGQAPYSGINITKEGIQIGVEGQTPKYADKTFQPEPQIGESQWYETEINHAAGRVLKKTTPMKPCYGSYAKPTNENGGQGILVKQQNGKLESQVEMQFFSTTEATAGNGDNLTPKVVLYSEDVDIETPDTHISYMPTIKEGNSRELMGQQSMPNRPNYIAFRDNFIGLMYYNSTGNMGVLAGQASQLNAVVDLQDRNTELSYQLLLDSIGDRTRYFSMWNQAVDSYDPDVRIIENHGTEDELPNYCFPLGGVINTETLTKVKPKTGQENGWEKDATEFSDKNEIRVGNNFAMEINLNANLWRNFLYSNIALYLPDKLKYSPSNVKISDNPNTYDYMNKRVVAPGLVDCYINLGARWSLDYMDNVNPFNHHRNAGLRYRSMLLGNGRYVPFHIQVPQKFFAIKNLLLLPGSYTYEWNFRKDVNMVLQSSLGNDLRVDGASIKFDSICLYATFFPMAHNTASTLEAMLRNDTNDQSFNDYLSAANMLYPIPANATNVPISIPSRNWAAFRGWAFTRLKTKETPSLGSGYDPYYTYSGSIPYLDGTFYLNHTFKKVAITFDSSVSWPGNDRLLTPNEFEIKRSVDGEGYNVAQCNMTKDWFLVQMLANYNIGYQGFYIPESYKDRMYSFFRNFQPMSRQVVDDTKYKDYQQVGILHQHNNSGFVGYLAPTMREGQAYPANFPYPLIGKTAVDSITQKKFLCDRTLWRIPFSSNFMSMGALTDLGQNLLYANSAHALDMTFEVDPMDEPTLLYVLFEVFDVVRVHRPHRGVIETVYLRTPFSAGNATT
[1]
  Kd: 820 pM
[2]
  Kd: 420 pM
